Data on five molecules can be found in US20210292422A1 (published 2021).

Common to all, as to test: BLI (Octet)
A general note: BLI is a label-free optical method that tracks binding on a fibre tip over time.

The target of assay [1] is T1, LRP6E3E4 (UniProt O75581 631-1246).
T1 chain: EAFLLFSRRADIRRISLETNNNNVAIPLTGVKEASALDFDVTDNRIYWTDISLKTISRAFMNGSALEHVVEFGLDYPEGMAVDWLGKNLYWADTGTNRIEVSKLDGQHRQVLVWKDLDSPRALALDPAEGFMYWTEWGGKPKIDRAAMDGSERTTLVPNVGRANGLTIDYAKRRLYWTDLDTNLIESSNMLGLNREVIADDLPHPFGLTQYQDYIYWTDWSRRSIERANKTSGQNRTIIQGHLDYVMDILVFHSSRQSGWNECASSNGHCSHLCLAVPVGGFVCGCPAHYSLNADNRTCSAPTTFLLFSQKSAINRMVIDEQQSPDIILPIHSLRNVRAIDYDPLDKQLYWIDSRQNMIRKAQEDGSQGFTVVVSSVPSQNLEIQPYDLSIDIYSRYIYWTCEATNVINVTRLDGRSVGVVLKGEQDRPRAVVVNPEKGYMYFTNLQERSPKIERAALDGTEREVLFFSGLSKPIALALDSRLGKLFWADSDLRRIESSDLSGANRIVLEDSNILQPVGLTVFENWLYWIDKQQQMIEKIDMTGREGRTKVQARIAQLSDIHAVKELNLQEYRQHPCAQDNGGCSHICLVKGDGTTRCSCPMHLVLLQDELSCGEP

Assay [2] deals with Frizzled 1 (Fzd1) (UniProt Q9UP38 111-230).
The target in assay [3] is T2, LRP6E1E2 (UniProt O75581 20-630).
T2 chain: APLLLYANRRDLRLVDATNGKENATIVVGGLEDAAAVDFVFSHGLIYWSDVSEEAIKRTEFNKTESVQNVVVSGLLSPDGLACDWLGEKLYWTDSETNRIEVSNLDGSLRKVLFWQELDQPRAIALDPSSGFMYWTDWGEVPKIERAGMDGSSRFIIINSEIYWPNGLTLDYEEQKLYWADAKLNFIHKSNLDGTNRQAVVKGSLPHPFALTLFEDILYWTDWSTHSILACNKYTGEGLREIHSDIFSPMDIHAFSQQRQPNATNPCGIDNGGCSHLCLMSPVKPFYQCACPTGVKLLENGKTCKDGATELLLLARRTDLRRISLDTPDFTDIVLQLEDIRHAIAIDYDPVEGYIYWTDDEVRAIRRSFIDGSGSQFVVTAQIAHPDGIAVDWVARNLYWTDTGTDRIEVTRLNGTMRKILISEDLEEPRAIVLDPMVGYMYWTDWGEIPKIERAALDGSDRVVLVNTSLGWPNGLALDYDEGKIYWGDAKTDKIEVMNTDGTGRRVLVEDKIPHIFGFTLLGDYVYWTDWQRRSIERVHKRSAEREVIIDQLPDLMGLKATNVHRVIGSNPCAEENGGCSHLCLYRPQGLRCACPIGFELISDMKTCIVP

B1: L2:5:αGFP:Fc (bispecific antibody)
chain: EVQLVESGGGLVQPGGSLRLSCAASGFTFTSYYISWVRQAPGKGLEWVAEISPYSGSTYYADSVKGRFTISADTSKNTAYLQMNSLRAEDTAVYYCALRARPPIRLHPRGSVMDYWGQGTLVTVSSGSAASGSSGGSSSGADIQMTQSPSSLSASVGDRVTITCRASQDVSTAVAWYQQKPGKAPKLLIYSASFLYSGVPSRFSGSGSGTDFTLTISSLQPEDFATYYCQQSYTTPPTFGQGTKVEIKGSGSGQVQLVESGGGLVQPGGSLRLSCAASGFTFSRYGMHWVRQAPGKGLEWVSGISSIGSNTYYADSVKGRFTISRDNSKNTLYLQMNSLRAEDTAVYYCARWYKTYIDVWGQGTLVTVSSGGGGSGGGGSGGGGSDIELTQPPSVSVAPGQTARISCSGDNLGKKYVYWYQQKPGQAPVLVIYGDDERPSGIPERFSGSNSGNTATLTISGTQAEDEADYYCASYDSSHILIVFGGGTKLTVLGSGSGDKTHTCPPCPAPEAAGGPSVFLFPPKPKDTLMISRTPEVTCVVVDVSHEDPEVKFNWYVDGVEVHNAKTKPREEQYNSTYRVVSVLTVLHQDWLNGKEYKCKVSNKALGAPIEKTISKAKGQPREPQVYTLPPSREEMTKNQVSLTCLVKGFYPSDIAVEWESNGQPENNYKTTPPVLDSDGSFFLYSKLTVDKSRWQQGNVFSCSVMHEALHNHYTQKSLSLSPGK
As to B1, the Kd (as a rule, the free concentration of one partner at which half of the binding sites on the other are occupied at equilibrium, for simple one-to-one binding) in assay [1] was 0.5 nM. In other words, the sub-nanomolar range.

B2: αGFP:5:L2:Fc (bispecific antibody)
chain: QVQLVESGGGLVQPGGSLRLSCAASGFTFSRYGMHWVRQAPGKGLEWVSGISSIGSNTYYADSVKGRFTISRDNSKNTLYLQMNSLRAEDTAVYYCARWYKTYIDVWGQGTLVTVSSGGGGSGGGGSGGGGSDIELTQPPSVSVAPGQTARISCSGDNLGKKYVYWYQQKPGQAPVLVIYGDDERPSGIPERFSGSNSGNTATLTISGTQAEDEADYYCASYDSSHILIVFGGGTKLTVLGSGSGEVQLVESGGGLVQPGGSLRLSCAASGFTFTSYYISWVRQAPGKGLEWVAEISPYSGSTYYADSVKGRFTISADTSKNTAYLQMNSLRAEDTAVYYCALRARPPIRLHPRGSVMDYWGQGTLVTVSSGSAASGSSGGSSSGADIQMTQSPSSLSASVGDRVTITCRASQDVSTAVAWYQQKPGKAPKLLIYSASFLYSGVPSRFSGSGSGTDFTLTISSLQPEDFATYYCQQSYTTPPTFGQGTKVEIKGSGSGDKTHTCPPCPAPEAAGGPSVFLFPPKPKDTLMISRTPEVTCVVVDVSHEDPEVKFNWYVDGVEVHNAKTKPREEQYNSTYRVVSVLTVLHQDWLNGKEYKCKVSNKALGAPIEKTISKAKGQPREPQVYTLPPSREEMTKNQVSLTCLVKGFYPSDIAVEWESNGQPENNYKTTPPVLDSDGSFFLYSKLTVDKSRWQQGNVFSCSVMHEALHNHYTQKSLSLSPGK
In assay [1], B2 had a Kd of 0.8 nM.

B3: F1:5:αGFP:Fc (bispecific antibody)
chain: EVQLVESGGGLVQPGGSLRLSCAASGFTFSHYTLSWVRQAPGKGLEWVSVISGDGSYTYYADSVKGRFTISSDNSKNTLYLQMNSLRAEDTAVYYCARNFIKYVFANWGQGTLVTVSSGGGGSGGGGSGGGGSDIELTQPPSVSVAPGQTARISCSGDNIGSFYVHWYQQKPGQAPVLVIYDKSNRPSGIPERFSGSNSGNTATLTISGTQAEDEADYYCQSYANTLSLVFGGGTKLTVLGSGSGQVQLVESGGGLVQPGGSLRLSCAASGFTFSRYGMHWVRQAPGKGLEWVSGISSIGSNTYYADSVKGRFTISRDNSKNTLYLQMNSLRAEDTAVYYCARWYKTYIDVWGQGTLVTVSSGGGGSGGGGSGGGGSDIELTQPPSVSVAPGQTARISCSGDNLGKKYVYWYQQKPGQAPVLVIYGDDERPSGIPERFSGSNSGNTATLTISGTQAEDEADYYCASYDSSHILIVFGGGTKLTVLGSGSGDKTHTCPPCPAPEAAGGPSVFLFPPKPKDTLMISRTPEVTCVVVDVSHEDPEVKFNWYVDGVEVHNAKTKPREEQYNSTYRVVSVLTVLHQDWLNGKEYKCKVSNKALGAPIEKTISKAKGQPREPQVYTLPPSREEMTKNQVSLTCLVKGFYPSDIAVEWESNGQPENNYKTTPPVLDSDGSFFLYSKLTVDKSRWQQGNVFSCSVMHEALHNHYTQKSLSLSPGK
In assay [2], B3 showed a Kd of 0.2 nM.

B4: αGFP:5:F1:Fc (bispecific antibody)
chain: QVQLVESGGGLVQPGGSLRLSCAASGFTFSRYGMHWVRQAPGKGLEWVSGISSIGSNTYYADSVKGRFTISRDNSKNTLYLQMNSLRAEDTAVYYCARWYKTYIDVWGQGTLVTVSSGGGGSGGGGSGGGGSDIELTQPPSVSVAPGQTARISCSGDNLGKKYVYWYQQKPGQAPVLVIYGDDERPSGIPERFSGSNSGNTATLTISGTQAEDEADYYCASYDSSHILIVFGGGTKLTVLGSGSGEVQLVESGGGLVQPGGSLRLSCAASGFTFSHYTLSWVRQAPGKGLEWVSVISGDGSYTYYADSVKGRFTISSDNSKNTLYLQMNSLRAEDTAVYYCARNFIKYVFANWGQGTLVTVSSGGGGSGGGGSGGGGSDIELTQPPSVSVAPGQTARISCSGDNIGSFYVHWYQQKPGQAPVLVIYDKSNRPSGIPERFSGSNSGNTATLTISGTQAEDEADYYCQSYANTLSLVFGGGTKLTVLGSGSGDKTHTCPPCPAPEAAGGPSVFLFPPKPKDTLMISRTPEVTCVVVDVSHEDPEVKFNWYVDGVEVHNAKTKPREEQYNSTYRVVSVLTVLHQDWLNGKEYKCKVSNKALGAPIEKTISKAKGQPREPQVYTLPPSREEMTKNQVSLTCLVKGFYPSDIAVEWESNGQPENNYKTTPPVLDSDGSFFLYSKLTVDKSRWQQGNVFSCSVMHEALHNHYTQKSLSLSPGK
Consider B4, for which binding in assay [2] was put at a Kd of 2.5 nM.

B5: L1:5:αGFP:Fc (bispecific antibody)
chain: DVKLVESGGGLVKLGGSLRLSCAASGFSFSTSYMSWVRQTPEKRLELVAAINLNGGSTYYSDTVKGRFTISRDNAKNTLYLQMSSLKSEDTAFYYCASELAGYGTPFAYWGQGTLVTVSAGSAASGSSGGSSSGADIVLTQSPATLSVTPGDSVSLSCKASQSISYNLHWYQQKSHESPRLLIKYTSQSISGIPSRFSGSGSGTDFTLTINNVETEDFGMYFCQQSNSWPLTFGAGTKLEVKGSGSGQVQLVESGGGLVQPGGSLRLSCAASGFTFSRYGMHWVRQAPGKGLEWVSGISSIGSNTYYADSVKGRFTISRDNSKNTLYLQMNSLRAEDTAVYYCARWYKTYIDVWGQGTLVTVSSGGGGSGGGGSGGGGSDIELTQPPSVSVAPGQTARISCSGDNLGKKYVYWYQQKPGQAPVLVIYGDDERPSGIPERFSGSNSGNTATLTISGTQAEDEADYYCASYDSSHILIVFGGGTKLTVLGSGSGDKTHTCPPCPAPEAAGGPSVFLFPPKPKDTLMISRTPEVTCVVVDVSHEDPEVKFNWYVDGVEVHNAKTKPREEQYNSTYRVVSVLTVLHQDWLNGKEYKCKVSNKALGAPIEKTISKAKGQPREPQVYTLPPSREEMTKNQVSLTCLVKGFYPSDIAVEWESNGQPENNYKTTPPVLDSDGSFFLYSKLTVDKSRWQQGNVFSCSVMHEALHNHYTQKSLSLSPGK
Take B5: the Kd in assay [3] was 16 nM. In other words, the double-digit nanomolar range.
